Paper PMC6986101, “The mitochondrial HSP90 paralog TRAP1 forms an OXPHOS-regulated tetramer and is involved in mitochondrial metabolic homeostasis” (BMC Biology, 2020)

Tests used:
[1] = target: the molecule itself; assay: native gel or EMSA; clear native PAGE (6% or 8% Tris-glycine, 4 °C) of 30 μg mitochondrial extract, immunoblot with anti-TRAP1; cells also treated with hypoxia, oligomycin, rotenone, antimycin A or LDHi, or grown on different carbon sources
[2] = target: the molecule itself; assay: affinity purification with mass spectrometry + native gel or EMSA; glutathione bead pull-down of TRAP1-GST from 1 mg mitochondrial lysate of transfected HEK293T cells, elution with 80 mM glutathione, 6% clear native gel, the stained complex band excised and analysed by LC/MS/MS; cutoff 11 unique peptides, GST alone as control
[3] = target: the molecule itself; assay: native gel or EMSA; blue native PAGE (3-12%) of purified recombinant TRAP1 (20 and 5 ng), immunoblot with anti-TRAP1

B1: endogenous TRAP1 (natural protein, human (endogenous in HEK293T), UniProt Q12931 60-704, looked up)
chain: STQTAEDKEEPLHSIISSTESVQGSTSKHEFQAETKKLLDIVARSLYSEKEVFIRELISNASDALEKLRHKLVSDGQALPEMEIHLQTNAEKGTITIQDTGIGMTQEELVSNLGTIARSGSKAFLDALQNQAEASSKIIGQFGVGFYSAFMVADRVEVYSRSAAPGSLGYQWLSDGSGVFEIAEASGVRTGTKIIIHLKSDCKEFSSEARVRDVVTKYSNFVSFPLYLNGRRMNTLQAIWMMDPKDVREWQHEEFYRYVAQAHDKPRYTLHYKTDAPLNIRSIFYVPDMKPSMFDVSRELGSSVALYSRKVLIQTKATDILPKWLRFIRGVVDSEDIPLNLSRELLQESALIRKLRDVLQQRLIKFFIDQSKKDAEKYAKFFEDYGLFMREGIVTATEQEVKEDIAKLLRYESSALPSGQLTSLSEYASRMRAGTRNIYYLCAPNRHLAEHSPYYEAMKKKDTEVLFCFEQFDELTLLHLREFDKKKLISVETDIVVDHYKEEKFEDRSPAAECLSEKETEELMAWMRNVLGSRVTNVKVTLRLDTHPAMVTVLEMGAARHFLRMQQLAKTQEERAQLLQPTLEINPRHALIKKLNQLRASEPGLAQLLVDQIYENAMIAAGLVDDPRAMVGRLNELLVKALERH
notes: also called endogenous mitochondrial TRAP1; wild-type (WT) endogenous TRAP1; source: endogenous, mitochondrial extracts of HEK293T cells (also MCF-7, MDA-MB-134, PC3 and HCT116 cells)
[1]
  stoichiometry N: 4

B2: TRAP1-GST fusion protein (natural protein, human, UniProt Q12931 60-704, looked up)
chain: STQTAEDKEEPLHSIISSTESVQGSTSKHEFQAETKKLLDIVARSLYSEKEVFIRELISNASDALEKLRHKLVSDGQALPEMEIHLQTNAEKGTITIQDTGIGMTQEELVSNLGTIARSGSKAFLDALQNQAEASSKIIGQFGVGFYSAFMVADRVEVYSRSAAPGSLGYQWLSDGSGVFEIAEASGVRTGTKIIIHLKSDCKEFSSEARVRDVVTKYSNFVSFPLYLNGRRMNTLQAIWMMDPKDVREWQHEEFYRYVAQAHDKPRYTLHYKTDAPLNIRSIFYVPDMKPSMFDVSRELGSSVALYSRKVLIQTKATDILPKWLRFIRGVVDSEDIPLNLSRELLQESALIRKLRDVLQQRLIKFFIDQSKKDAEKYAKFFEDYGLFMREGIVTATEQEVKEDIAKLLRYESSALPSGQLTSLSEYASRMRAGTRNIYYLCAPNRHLAEHSPYYEAMKKKDTEVLFCFEQFDELTLLHLREFDKKKLISVETDIVVDHYKEEKFEDRSPAAECLSEKETEELMAWMRNVLGSRVTNVKVTLRLDTHPAMVTVLEMGAARHFLRMQQLAKTQEERAQLLQPTLEINPRHALIKKLNQLRASEPGLAQLLVDQIYENAMIAAGLVDDPRAMVGRLNELLVKALERH
notes: TRAP1, human; the MTS is cleaved off upon import; Called one of the 'full-length TRAP1 proteins with different tags'; source: HEK293T, transfected, pulled down from mitochondrial lysate on glutathione beads and eluted with glutathione; not shown: GST, C-terminal, kept
[2]
  stoichiometry N: 4

B3: recombinant human TRAP1 (natural protein, UniProt Q12931 60-704, looked up)
chain: STQTAEDKEEPLHSIISSTESVQGSTSKHEFQAETKKLLDIVARSLYSEKEVFIRELISNASDALEKLRHKLVSDGQALPEMEIHLQTNAEKGTITIQDTGIGMTQEELVSNLGTIARSGSKAFLDALQNQAEASSKIIGQFGVGFYSAFMVADRVEVYSRSAAPGSLGYQWLSDGSGVFEIAEASGVRTGTKIIIHLKSDCKEFSSEARVRDVVTKYSNFVSFPLYLNGRRMNTLQAIWMMDPKDVREWQHEEFYRYVAQAHDKPRYTLHYKTDAPLNIRSIFYVPDMKPSMFDVSRELGSSVALYSRKVLIQTKATDILPKWLRFIRGVVDSEDIPLNLSRELLQESALIRKLRDVLQQRLIKFFIDQSKKDAEKYAKFFEDYGLFMREGIVTATEQEVKEDIAKLLRYESSALPSGQLTSLSEYASRMRAGTRNIYYLCAPNRHLAEHSPYYEAMKKKDTEVLFCFEQFDELTLLHLREFDKKKLISVETDIVVDHYKEEKFEDRSPAAECLSEKETEELMAWMRNVLGSRVTNVKVTLRLDTHPAMVTVLEMGAARHFLRMQQLAKTQEERAQLLQPTLEINPRHALIKKLNQLRASEPGLAQLLVDQIYENAMIAAGLVDDPRAMVGRLNELLVKALERH
notes: TRAP1, human, recombinant; probably without the MTS (surmise); Same material used for blue native PAGE and cryo-EM; also called purified recombinant TRAP1
[3]
  stoichiometry N: 4
